Laboratory results as given in paper PMC11754664, “DNA binding and transposition activity of the Sleeping Beauty transposase: role of structural stability of the primary DNA-binding domain”.

Tests used:
SB100X-H19Y [1] = biological target: T1, SB100X-H19Y (synthetic Sleeping Beauty transposon, K14R;H19Y;K33A;R115H;R214D;K215A;E216V;N217Q;M243H;T314N); experiment: MST; nonspecific; Full-length MST: 50 mM Tris pH 7.5, 5 mM MgCl2, 300 mM NaCl, 2% glycerol, 50 mM Arg-Glu, 1 mM TCEP, 0.1% Triton X-100, 0.1 mg/ml BSA, 30 nM Cy5-DNA, room temp; conditions: protein: recombinant, tags: Ni-NTA purified
SB100X transposase [2] = biological target: T2, SB100X transposase (synthetic Sleeping Beauty transposon, K14R;K33A;R115H;R214D;K215A;E216V;N217Q;M243H;T314N); experiment: MST; nonspecific, monophasic; Full-length MST: 50 mM Tris pH 7.5, 5 mM MgCl2, 300 mM NaCl, 2% glycerol, 50 mM Arg-Glu, 1 mM TCEP, 0.1% Triton X-100, 0.1 mg/ml BSA, 30 nM Cy5-DNA, room temp; conditions: protein: recombinant; tags: Ni-NTA purified; label: Cy5 (5' forward strand)
SB10 transposase [3] = biological target: T3, SB10 transposase (synthetic Sleeping Beauty transposon); experiment: as above; conditions: protein: recombinant; tags: Ni-NTA purified; label: Cy5 (5' forward strand)
SB10-H19Y [4] = biological target: T4, SB10-H19Y (synthetic Sleeping Beauty transposon, H19Y); experiment: MST; Full-length MST: 50 mM Tris pH 7.5, 5 mM MgCl2, 300 mM NaCl, 2% glycerol, 50 mM Arg-Glu, 1 mM TCEP, 0.1% Triton X-100, 0.1 mg/ml BSA, 30 nM Cy5-DNA, room temp; conditions: protein: recombinant; tags: Ni-NTA purified; label: 5' Cy5 on forward strand (MST)
SB100X-H19Y [5] = biological target: T1, SB100X-H19Y; experiment: as above; conditions: protein: recombinant; tags: Ni-NTA purified; label: 5' Cy5 on forward strand (MST)
SB100X transposase [6] = biological target: T2, SB100X transposase; experiment: fluorescence lifetime; Full-length MST: 50 mM Tris pH 7.5, 5 mM MgCl2, 300 mM NaCl, 2% glycerol, 50 mM Arg-Glu, 1 mM TCEP, 0.1% Triton X-100, 0.1 mg/ml BSA, 30 nM Cy5-DNA, room temp; conditions: protein: recombinant; tags: Ni-NTA purified; label: 5' Cy5 on forward strand (MST)
SB10-H19Y [7] = biological target: T4, SB10-H19Y; experiment: as above; conditions: protein: recombinant; tags: Ni-NTA purified; label: 5' Cy5 on forward strand (MST)
SB10 transposase [8] = biological target: T3, SB10 transposase; experiment: as above; conditions: protein: recombinant; tags: Ni-NTA purified; label: 5' Cy5 on forward strand (MST)
SB100X-H19Y [9] = biological target: T1, SB100X-H19Y; experiment: as above; conditions: protein: recombinant; tags: Ni-NTA purified; label: 5' Cy5 on forward strand (MST)
SB100X transposase [10] = biological target: T2, SB100X transposase; experiment: fluorescence anisotropy; Full-length MST: 50 mM Tris pH 7.5, 5 mM MgCl2, 300 mM NaCl, 2% glycerol, 50 mM Arg-Glu, 1 mM TCEP, 0.1% Triton X-100, 0.1 mg/ml BSA, 30 nM Cy5-DNA, room temp; conditions: protein: recombinant; tags: Ni-NTA purified; label: 5' Cy5 on forward strand (MST)
SB10-H19Y [11] = biological target: T4, SB10-H19Y; experiment: as above; conditions: protein: recombinant; tags: Ni-NTA purified; label: 5' Cy5 on forward strand (MST)
SB10 transposase [12] = biological target: T3, SB10 transposase; experiment: as above; conditions: protein: recombinant; tags: Ni-NTA purified; label: 5' Cy5 on forward strand (MST)
SB100X-H19Y [13] = biological target: T1, SB100X-H19Y; experiment: as above; conditions: protein: recombinant; tags: Ni-NTA purified; label: 5' Cy5 on forward strand (MST)
SB100X transposase [14] = biological target: T2, SB100X transposase; experiment: MST; specific (first) transition; Full-length MST: 50 mM Tris pH 7.5, 5 mM MgCl2, 300 mM NaCl, 2% glycerol, 50 mM Arg-Glu, 1 mM TCEP, 0.1% Triton X-100, 0.1 mg/ml BSA, 30 nM Cy5-DNA, room temp; conditions: protein: recombinant; tags: Ni-NTA purified; label: 5' Cy5 on forward strand (MST)
SB10 transposase [15] = biological target: T3, SB10 transposase; experiment: as above; conditions: protein: recombinant; tags: Ni-NTA purified; label: 5' Cy5 on forward strand (MST)
[16] = biological target: T5, H19Y (PAI K14R/H19Y/K33A) (synthetic Sleeping Beauty transposon, UniProt PDB:6URS_1, K14R;H19Y;K33A); experiment: NMR; HSQC and PFG diffusion, pH 5.2, 35 C, 1:5; monomeric complex; Full-length MST: 50 mM Tris pH 7.5, 5 mM MgCl2, 300 mM NaCl, 2% glycerol, 50 mM Arg-Glu, 1 mM TCEP, 0.1% Triton X-100, 0.1 mg/ml BSA, 30 nM Cy5-DNA, room temp; conditions: protein: recombinant; tags: Ni-NTA purified; label: 5' Cy5 on forward strand (MST)
[17] = biological target: T5, H19Y (PAI K14R/H19Y/K33A); experiment: NMR; HSQC, pH 5.2, 35 C, 1:4.5 protein:DNA; Full-length MST: 50 mM Tris pH 7.5, 5 mM MgCl2, 300 mM NaCl, 2% glycerol, 50 mM Arg-Glu, 1 mM TCEP, 0.1% Triton X-100, 0.1 mg/ml BSA, 30 nM Cy5-DNA, room temp; conditions: protein: recombinant; tags: Ni-NTA purified; label: 5' Cy5 on forward strand (MST)
[18] = biological target: T5, H19Y (PAI K14R/H19Y/K33A); experiment: NMR; HSQC and PFG diffusion, pH 5.2, 35 C; monomeric complex; Full-length MST: 50 mM Tris pH 7.5, 5 mM MgCl2, 300 mM NaCl, 2% glycerol, 50 mM Arg-Glu, 1 mM TCEP, 0.1% Triton X-100, 0.1 mg/ml BSA, 30 nM Cy5-DNA, room temp; conditions: protein: recombinant; tags: Ni-NTA purified; label: 5' Cy5 on forward strand (MST)

B1: NS2 (dsDNA)
DNA 1: CGGTCTTTCCGTCTT
DNA 2: AAGACGGAAAGACCG
B1 was tested, and the Kd (SB100X-H19Y [1]) was 3.43 ± 0.24 µM.

B2: NS1 (dsDNA)
DNA 1: ACCTTCCTCCGCAATACTCCCCCAGGT
DNA 2: ACCTGGGGGAGTATTGCGGAGGAAGGT
For B2, the Kd (SB100X-H19Y [1]; label: Cy5 (5' forward strand)) was 2.71 ± 0.21 µM, the Kd (SB100X transposase [2]) was 560 ± 40 nM and the Kd (SB10 transposase [3]) was 2600 ± 160 nM.

B3: Li (dsDNA)
DNA 1: TCCAGTGGGTCAGAAGTTTACATACACTAAGT
DNA 2: ACTTAGTGTATGTAAACTTCTGACCCACTGGA
B3 showed a Kd (SB10-H19Y [4]) of 10.2 ± 0.9 nM, a Kd (SB100X-H19Y [5]) of 10.3 ± 0.8 nM and a Kd (SB100X transposase [6]) of 25.9 ± 2.3 nM. It also gave a Kd (SB10-H19Y [7]) of 16 ± 0.7 nM, a Kd (SB10 transposase [8]) of 17.2 ± 0.8 nM and a Kd (SB100X-H19Y [9]) of 16.2 ± 2.3 nM. It also gave a Kd (SB100X transposase [10]) of 27.6 ± 4.9 nM, a Kd (SB10-H19Y [11]) of 18.2 ± 2.2 nM and a Kd (SB10 transposase [12]) of 19.3 ± 2.8 nM. The Kd (SB100X-H19Y [13]) was 16 ± 3.2 nM, the Kd (SB100X transposase [14]) was 23.6 ± 2.2 nM and the Kd (SB10 transposase [15]) was 17.3 ± 1.2 nM. B3: binds [16].

B4: DR-core (dsDNA)
DNA 1: TCGGAAGTTTACATACAC
DNA 2: GTGTATGTAAACTTCCGA
B4 showed a Kd (SB10-H19Y [4]) of 31.1 ± 2.3 nM, a Kd (SB100X-H19Y [5]) of 31.2 ± 11.1 nM and a Kd (SB100X transposase [6]) of 31.6 ± 3.4 nM. The Kd (SB10-H19Y [7]) was 45.4 ± 4.8 nM, the Kd (SB10 transposase [8]) was 29.4 ± 2 nM and the Kd (SB100X transposase [10]) was 35.1 ± 6.6 nM. For the same binder, the Kd (SB10-H19Y [11]) was 51.3 ± 8.3 nM, the Kd (SB10 transposase [12]) was 37 ± 4 nM and the Kd (SB100X transposase [14]) was 17.3 ± 1.1 nM. The Kd (SB10 transposase [15]) was 25.3 ± 0.9 nM and the binding result [17] was “binds”.

B5: Lo (dsDNA)
DNA 1: CAGTTGAAGTCGGAAGTTTACATACACTTAAG
DNA 2: CTTAAGTGTATGTAAACTTCCGACTTCAACTG
In the case of B5, the Kd (SB10-H19Y [4]) is reported as 11.6 ± 1.8 nM, the Kd (SB100X-H19Y [5]) is reported as 29.7 ± 3.5 nM and the Kd (SB100X transposase [6]) is reported as 16 ± 2.6 nM. It also gave a Kd (SB10-H19Y [7]) of 13.2 ± 1.1 nM, a Kd (SB10 transposase [8]) of 23 ± 2.2 nM and a Kd (SB100X-H19Y [9]) of 20.6 ± 0.8 nM. The Kd (SB100X transposase [10]) was 13.7 ± 2.8 nM, the Kd (SB10-H19Y [11]) was 9.73 ± 2.5 nM and the Kd (SB10 transposase [12]) was 23.9 ± 2.8 nM. It also gave a Kd (SB100X-H19Y [13]) of 17.3 ± 2.2 nM, a Kd (SB100X transposase [14]) of 23 ± 1.9 nM and a Kd (SB10 transposase [15]) of 16.6 ± 2.6 nM. B5: binds [18].
